Measured values: patent publication US20250320281A1

Legend:
Test in all cases: cell-based or functional assay
[1] = molecular target: HIV-1 Env of isolate NL43 (subtype B pseudovirus) (HIV-1)
[2] = molecular target: HIV-1 Env of isolate MGRM-F1-012 (pseudovirus) (HIV-1)
[3] = molecular target: HIV-1 Env of isolate TRJ04551.58 (subtype B pseudovirus) (HIV-1)
[4] = molecular target: HIV-1 Env of isolate MGRM-D-014 (pseudovirus) (HIV-1)
[5] = molecular target: HIV-1 JRCSF Env (pseudovirus, clade B) (HIV-1) (UniProt P20871)
[6] = molecular target: HIV-1 92RW020 Env (pseudovirus, clade A) (HIV-1)
[7] = molecular target: HIV-1 APV13 Env (pseudovirus, clade B) (HIV-1)
[8] = molecular target: HIV-1 Env of isolate CMU02 (clade AE), on pseudovirus (HIV-1)
[9] = molecular target: HIV-1 Env of isolate 92UG024 (pseudovirus) (HIV-1)
[10] = molecular target: HIV-1 Env of isolate MGRM-Chronic-B-001 (subtype B pseudovirus) (HIV-1)
[11] = molecular target: HIV-1 Env of isolate 97ZA012 (HIV-1)
[12] = molecular target: HIV-1 Env of isolate SC422661.8 (subtype B) (HIV-1)
[13] = molecular target: HIV-1 envelope glycoprotein (Env) of isolate MGRM-C-026 (HIV-1)
[14] = molecular target: HIV-1 envelope glycoprotein (Env) of isolate MGRM-C-006 (HIV-1)
[15] = molecular target: HIV-1 envelope glycoprotein (Env) of isolate MGRM-C-023 (HIV-1)
[16] = molecular target: HIV-1 Env of isolate MGRM-AG-013 (subtype AG) (HIV-1)
[17] = molecular target: HIV-1 Env of isolate 98IN022 (subtype C) (HIV-1)
[18] = molecular target: HIV-1 Env of isolate MGRM-Chronic-B-004 (subtype B) (HIV-1)
[19] = molecular target: HIV-1 Env of isolate MGRM-AE-005 (subtype AE) (HIV-1)
[20] = molecular target: HIV-1 Env of isolate MGRM-AG-006 (subtype AG) (HIV-1)
[21] = molecular target: HIV-1 Env of isolate 92WR024 (HIV-1)
[22] = molecular target: HIV-1 Env of isolate MGRM-Chronic-B-008 (subtype B) (HIV-1)
[23] = molecular target: HIV-1 Env of isolate MGRM-A-013 (subtype A) (HIV-1)
[24] = molecular target: HIV-1 envelope glycoprotein (Env) of isolate MGRM-C-019 (HIV-1)
[25] = molecular target: HIV-1 92TH021 envelope glycoprotein (Env) on pseudovirus (HIV-1)
[26] = molecular target: HIV-1 Env of isolate MGRM-G-025 (HIV-1)

5329_C19 (PGT-136) (antibody), sequence (VH): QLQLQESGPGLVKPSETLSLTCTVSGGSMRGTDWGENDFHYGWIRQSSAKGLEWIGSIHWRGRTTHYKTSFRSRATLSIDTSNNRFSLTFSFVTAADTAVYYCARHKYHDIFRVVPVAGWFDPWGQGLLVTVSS
5329_C19 (PGT-136) (antibody), sequence (VL): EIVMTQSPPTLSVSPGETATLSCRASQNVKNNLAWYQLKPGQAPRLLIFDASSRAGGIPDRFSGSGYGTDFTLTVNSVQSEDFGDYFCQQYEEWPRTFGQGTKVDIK
5345_I01 (PGT-137) (antibody), sequence (VH): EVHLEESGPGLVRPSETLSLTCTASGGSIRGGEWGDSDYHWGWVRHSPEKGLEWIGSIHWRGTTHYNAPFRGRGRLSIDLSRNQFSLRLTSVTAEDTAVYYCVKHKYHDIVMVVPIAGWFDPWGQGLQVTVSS
5345_I01 (PGT-137) (antibody), sequence (VL): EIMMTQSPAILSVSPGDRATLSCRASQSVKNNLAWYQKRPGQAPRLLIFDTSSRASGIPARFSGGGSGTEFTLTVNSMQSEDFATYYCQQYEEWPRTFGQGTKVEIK

Substance	IC50 (µg/mL), pseudovirus neutralization [1] [µg/mL]	IC50, pseudovirus neutralization [2] [µg/mL]	IC50 (µg/mL), pseudovirus neutralization [3] [µg/mL]	IC50 neutralization [5] [µg/mL]	IC50 neutralization [6] [µg/mL]	IC50 neutralization [7] [µg/mL]	IC50, pseudovirus neutralization [8] [µg/mL]	IC50 neutralization [12] [µg/mL]	IC50 (µg/mL), pseudovirus neutralization [13] [µg/mL]	IC50 (µg/mL), pseudovirus neutralization [14] [µg/mL]	IC50 (µg/mL), pseudovirus neutralization [15] [µg/mL]	IC50 (µg/mL), pseudovirus neutralization [16] [µg/mL]	IC50 neutralization [17] [µg/mL]	IC50 neutralization [18] [µg/mL]	IC50 (µg/mL), pseudovirus neutralization [19] [µg/mL]	IC50 (µg/mL), pseudovirus neutralization [20] [µg/mL]	IC50 [21] [µg/mL]	IC50 neutralization [22] [µg/mL]	IC50 (µg/mL), pseudovirus neutralization [23] [µg/mL]	IC50 (µg/mL), pseudovirus neutralization [24] [µg/mL]	other results
5123_A06 (PGT-125) (antibody)	> 50	> 50	0.019	0.006	0.0028	0.0128	> 10														IC50, pseudovirus neutralization [4]: > 50 µg/mL; IC50, pseudovirus neutralization [9]: > 50 µg/mL; IC50 (µg/mL), pseudovirus neutralization [10]: > 50 µg/mL; neutralization IC50 [11]: 2.46 µg/mL
5136_H01 (PGT-131) (antibody)								> 50	1.67	0.611	0.143	0.03	> 50	0.04	0.017	0.019	> 50	> 50	> 50	0.021	
5141_B17 (PGT-126) (antibody)	> 50	0.3	0.025	0.0061	0.0046	0.012	> 10														IC50, pseudovirus neutralization [25]: 0.115 µg/mL; IC80 (pseudovirus neutralization) [25]: 1.62 µg/mL; IC90 (pseudovirus neutralization) [25]: 6.91 µg/mL; IC95 (pseudovirus neutralization) [25]: > 10 µg/mL; IC50, pseudovirus neutralization [4]: 0.03 µg/mL; IC50, pseudovirus neutralization [9]: > 50 µg/mL; IC50 (µg/mL), pseudovirus neutralization [10]: > 50 µg/mL; neutralization IC50 [11]: 0.042 µg/mL
5145_B14 (PGT-127) (antibody)	> 50	> 50	0.063																		IC50, pseudovirus neutralization [4]: 0.393 µg/mL; IC50, pseudovirus neutralization [9]: > 50 µg/mL; IC50 (µg/mL), pseudovirus neutralization [10]: > 50 µg/mL; neutralization IC50 [11]: > 50 µg/mL
5147_N06 (PGT-130) (antibody)				0.0089	0.014	0.0345	> 10	> 50	0.036	0.095	0.151	0.01	> 50	0.01	0.006	0.009	> 50	5.18	> 50	0.01	
5329_C19 (PGT-136) (antibody)				> 10	0.738	> 10	> 10	> 50	0.006	> 50	3.2	> 50	13.6	> 50	> 50	29.1	> 50	> 50	> 50	20.1	
5343_B08 (PGT-135) (antibody)				0.113	0.157	0.545	> 10	21.8	0.004	> 50	0.061	> 50	0.014	> 50	> 50	17.9	> 50	> 50	> 50	0.264	
5345_I01 (PGT-137) (antibody)								> 50	0.011	> 50	0.23	> 50	0.408	> 50	> 50	28.3	> 50	> 50	49.2	> 50	
PGV04 (antibody)																					IC50 (µg/mL), pseudovirus neutralization [26]: 1.61 µg/mL
VRC01 (antibody)															0.029						IC50 (µg/mL), pseudovirus neutralization [26]: 0.292 µg/mL
